Measurements as given in paper PMC5662131.

Experiments:
[1] = target: T1, (His)6-KcsA, K+ channel from Streptomyces lividans (Streptomyces lividans), P0A334; test: SEC; settings: remark: other sources report otherwise
T1 chain: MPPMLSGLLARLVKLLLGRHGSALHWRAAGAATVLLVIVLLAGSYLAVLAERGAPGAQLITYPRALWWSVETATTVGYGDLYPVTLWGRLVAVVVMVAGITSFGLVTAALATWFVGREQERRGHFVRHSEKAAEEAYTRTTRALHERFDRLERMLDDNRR

[2] = target: T1, (His)6-KcsA, K+ channel from …; test: SDS-PAGE with Western blot; settings: remark: other sources report otherwise

- stoichiometry N [1]: 4
- stoichiometry N [2]: 4
B1: (His)6-KcsA, K+ channel from Streptomyces lividans, P0A334 1-160 (natural protein)
chain: T1 chain
